# Laboratory results published in article PMC11112747, “Cyanovirin-N Binding to N-Acetyl-D-glucosamine Requires Carbohydrate-Binding Sites on Two Different Protomers” (Biochemistry, 2024).
# Changes are numbered by the printed parent chain. Numbers in names are those of the source. Where “and” joins values, the source holds several entries; their conditions need not be identical. Equal values may be shown once. Read-outs that look alike come from different tables or passages of the source.
# T1: CVN2 (CVN2L0) (Nostoc ellipsosporum, UniProt P81180)
# T1 construct: tandem-linked domain-swapped dimer of two CV-N, zero-linker length; His-tag
# T1 sequence (P81180 1-101): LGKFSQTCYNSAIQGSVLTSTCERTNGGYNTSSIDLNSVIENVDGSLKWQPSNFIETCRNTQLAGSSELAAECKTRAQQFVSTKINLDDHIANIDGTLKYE
# B1: Cyanovirin-N (protein, UniProt P81180 1-101, looked up)
# Cyanovirin-N: T1 sequence (P81180 1-101)
# B2: CVN2: tandem-linked dimeric CVN2 with zero-linker length; tandem repeat of two CV-N molecules (protein, UniProt P81180 1-101, looked up)
# Cyanovirin-N: T1 sequence (P81180 1-101)
# modifications: tandem repeat dimer, zero linker
# notes: tandem-linked dimeric CVN2 with zero-linker length; tandem repeat of two CV-N molecules
# B3: CVN-E41T: CV-N binding-site variant with single-point mutation E41T, generated by alanine to threonine substitution (protein, UniProt P81180 1-101, looked up, variant E41T)
# Cyanovirin-N: T1 sequence (P81180 1-101) with E41T
# Legend:
# CVN-E41T = target: T2, CVN-E41T (Nostoc ellipsosporum, UniProt P81180, E41T); experiment: Isothermal titration calorimetry, monomeric CVN-E41T titrated into 6 uM GlcNAc in the cell, PBS pH 7.4, 298 K, one-set of sites model, single biological replicates.; type: binding; details: n = 1; read-out: Affinity Kd
# T2 construct: His-tag
# Procedure: (§1) Calorimetric titrations were carried out using an ITC200 device (Malvern Panalytical, Malvern, UK). The concentration of mutant E41T dimer and monomeric variants CVN-E41T or CVN-E41A was 200 μM titrant of these proteins to the ligands ManNAc and GlcNAc in the cell. […] The protein concentrations were 44 μM (304 μM) CVN2L0 and 465 μM CVN-E41T in the ManNAc experiments, respectively, and determined to be between 200 and 300 μM for the GlcNAc experiment. Aliquots (2 μL) of CV-N titrant were injected at 2 min intervals into the sugar solution in the calorimetry cell with a total of 19 injections from a stirring syringe (operated at 750 rpm). […] The values for enthalpy, binding affinity, and stoichiometry from the binding curve and the free energy and entropy of interaction were calculated using Microcal Origin v7.0 (OriginLab, Northampton, Massachusetts, USA) according to the standard expressions: ΔG = −RTln Ka, and ΔG = ΔH–TΔS.
# (§2) The lectin interaction with peptide residues was enhanced or reduced by replacing a single, or two, disulfide bond(s) by ionic residue pairs (Glu and Arg) at positions E58 and R73 in CVN2, resulting in binding of dimannosylated peptide (DM) by double-mutant C58E-C73R (CVN2L0-V5) (Figure S2C) with high polar interactions.[12] […] The binding stoichiometry was calculated from a simplex fit. […]
# mutant E41T dimer [1] = target: T3, mutant E41T dimer (Nostoc ellipsosporum, UniProt P81180, E41T); experiment: Isothermal titration calorimetry, protein titrated into GlcNAc in the cell, PBS pH 7.4, 298 K, one-set of sites model.; type: binding; details: SEM, n = 3; read-out: affinity Kd
# T3 construct: His-tag
# Procedure: (§3) Calorimetric titrations were carried out using an ITC200 device (Malvern Panalytical, Malvern, UK). The concentration of mutant E41T dimer and monomeric variants CVN-E41T or CVN-E41A was 200 μM titrant of these proteins to the ligands ManNAc and GlcNAc in the cell. […] The protein concentrations were 44 μM (304 μM) CVN2L0 and 465 μM CVN-E41T in the ManNAc experiments, respectively, and determined to be between 200 and 300 μM for the GlcNAc experiment. Aliquots (2 μL) of CV-N titrant were injected at 2 min intervals into the sugar solution in the calorimetry cell with a total of 19 injections from a stirring syringe (operated at 750 rpm). Controls were prepared with identical amounts of titrant injected into PBS buffer at pH 7.4 at 298 K, and control values were subtracted from the results of the actual experiments. The values for enthalpy, binding affinity, and stoichiometry from the binding curve and the free energy and entropy of interaction were calculated using Microcal Origin v7.0 (OriginLab, Northampton, Massachusetts, USA) according to the standard expressions: ΔG = −RTln Ka, and ΔG = ΔH–TΔS.
# (§4) Figure 2 ITC data showing the binding of CVN2, mutant E41T dimer, and CVN-E41A to GlcNAc. (A) Schematic representation of monomeric CVN-E41A and dimeric CVN2 binding to GlcNAc. (B) Binding affinity of CVN2 to GlcNAc. Thermogram is shown, and the binding curve fitted to the one-set of sites model. (C) Mutant E41T dimer binds to GlcNAc. Thermogram is shown, and binding analyzed based on one-set of sites binding model. T = 298 K. Ligand in cell. […] Thermogram is shown, and binding analyzed based on one-set of sites binding model. […]
# as §2
# CVN-E41A = target: T4, CVN-E41A (Nostoc ellipsosporum, UniProt P81180, E41A); experiment: as above; type: binding; details: SEM, n = 3; read-out: affinity Kd
# T4 construct: monomeric variant; His-tag
# Procedure: as §3, §4, §2
# CVN2 (CVN2L0) [2] = target: T1, CVN2 (CVN2L0); experiment: as above; type: binding; details: SEM, n = 3; read-out: affinity Kd
# Procedure: as §3, §4, §2
# CVN2 (CVN2L0) [3] = target: T1, CVN2 (CVN2L0); experiment: Isothermal titration calorimetry, CVN2 titrated into ManNAc in the cell, PBS pH 7.4, 298 K, one-set of sites model.; type: binding; details: SEM, n = 3; read-out: affinity Kd
# Procedure: as §1, with “ΔH–TΔS. […]” for “ΔH–TΔS.”
# Specific carbohydrate–protein interactions with polar and charged residues were delineated from the solution structure with Manα1 → 2Man disaccharide bound to domain B.[5] […] A low-affinity binding site was exposed and calculated to bind ManNAc with micromolar concentrations of CV-N and CVN2 (Figure S1A and Figure 1B). […]
# mutant E41T dimer [4] = target: T3, mutant E41T dimer; experiment: Isothermal titration calorimetry, mutant E41T dimer with ManNAc in the cell, PBS pH 7.4, 298 K, calculated with N = 2.; type: binding
# Procedure: as §1
# In comparison, CV-N binding to GlcNAc, the N-linked glycan unit in N-glycosylation sites that is also part of bacterial cell walls with beta-linked bonds to N-acetylmuramic acid (MurNAc), was rather unspecific and measured in the micromolar range (Figure S1B).
# Figure S1. […] Calculated energies of interaction, affinities, and stoichiometry for CV-N binding and […]
# model. (F) Mutant E41T dimer binding to ManNAc is calculated based on N=2, ligand in the cell analysis. […]
# [5] = STD-NMR interaction with ManNAc; type: binding; details: protein 100 μM, carbohydrate/CV-N = 10:1, T = 298 K
# Procedure: (§5) NMR experiments were performed using a Bruker 600 MHz spectrometer, and STD spectra were obtained with −0.05 ppm as irradiation frequency and 2.94 s of saturation time. An NMR sample of CV-N, its mutant, and dimer were prepared in 100 mM PBS, pH 7.0, each added to the carbohydrate solutions in phosphate buffer for a final protein concentration of 100 μM and a ratio of carbohydrate/CV-N = 10:1.
# [6] = cited from earlier work
# [7] = STD-NMR interaction with GlcNAc; type: binding; details: protein 100 μM, carbohydrate/CV-N = 10:1, T = 298 K
# Procedure: as §5
# [8] = ITC binding of CVN2 to dimannosylated peptide (DM); details: one-set of sites model, T=298K, Figure S2D
# [9] = ITC binding of CV-N, CVN2 and variants to ManNAc; details: for Kd: two-sets of sites model
# Procedure: as §3
molecule,measurement,setting,value
"CC(=O)N[C@H]1C(O)O[C@H](CO)[C@@H](O)[C@@H]1O (stereo partly drawn) [GlcNAc, N-acetyl-D-glucosamine]",Kd,CVN-E41T,728 nM and 397 nM and 418 nM
same,Kd,mutant E41T dimer [1],5.89 ± 0.32 µM
same,Kd,CVN-E41A,2500 ± 2000 nM
same,Kd,CVN2 (CVN2L0) [2],852 ± 235 nM
"CC(=O)N[C@@H]1C(O)O[C@H](CO)[C@@H](O)[C@@H]1O (stereo partly drawn) [ManNAc, N-acetylmannosamine]",Kd,CVN2 (CVN2L0) [3],1400 ± 139 nM
same,Kd,mutant E41T dimer [4],110 µM
B1,STD-NMR interaction with ManNAc,[5],hydrogen bonding
same,Kd,"[6]; deeper high-affinity binding pocket, read-out: equilibrium Kd",~140 nM
same,Kd,"[6]; domain A (low-affinity site), read-out: Kd",1500 nM
same,STD-NMR interaction with GlcNAc,[7],interaction
B2,Kd,[8],3.94 µM
same,Kd,"[9]; site 2, read-out: KD2",0.0026 µM
same,STD-NMR interaction with GlcNAc,[7],interaction
B3,STD-NMR interaction with ManNAc,[5],hydrogen bonding
same,binding to ManNAc (ITC),"[9]; one-set of sites model, Figure S3A",no binding
same,Kd,"[9]; site 1, read-out: KD1",712 µM
same,Kd,"[9]; site 2, read-out: KD2",17.6 µM
same,STD-NMR interaction with GlcNAc,[7],interaction
